{
  "source": "patent US20090062512A1",
  "about": "“Comparative ligand mapping from MHC class I positive cells” (priority 2000, published 2009)",
  "note": "“And” between values parts separate entries of the source, which are not always exact repeats. Identical values can stand only once.",
  "data": [
    {"target": "A*0201 class I MHC molecules in cells infected with the PR8 strain of influenza A virus (Homo sapiens, UniProt P04439, D140Y/D185E/D98H/E176V/E277Q/G131W/G231S/I119V/I121R/I166T/I218V/L300P/L318F/N151K/N90K/P208A/P217A/Q86G/Q94H/R138H/R169H/T345S)", "type": "cell-based", "conditions": "not given", "values": [
      {"substance": "AVSDGVIKV", "Fold Increase": 8.98},
      {"substance": "ILGYTEHQV", "Fold Increase": 23.91},
      {"substance": "GLAKLIADV", "Fold Increase": 2.91},
      {"substance": "GLGPTFKL", "Fold Increase": "unique"},
      {"substance": "RVPPPPPIA", "Fold Increase": 6.54},
      {"substance": "FLPSYIIDV", "Fold Increase": 2.57},
      {"substance": "FLFNTENKL", "Fold Increase": 1.85},
      {"substance": "GMASVISRL", "Fold Increase": "Unique"},
      {"substance": "KLEEIIHQI", "Fold Increase": 2.08},
      {"substance": "GLQDFDLLRV", "Fold Increase": 2.29},
      {"substance": "ALNDHFVKL", "Fold Increase": 23.02},
      {"substance": "SIIGRLLEV", "Fold Increase": 56.92},
      {"substance": "TLWGIQKEL", "Fold Increase": 3.27},
      {"substance": "LLLDVPTAAVQA", "Fold Increase": 6.24},
      {"substance": "YLDKVRALE", "Fold Increase": "Unique"},
      {"substance": "KLIGDPNLEFV", "Fold Increase": 2.82},
      {"substance": "KVFDPVPVGV", "Fold Increase": 1.74},
      {"substance": "KVPEWVDTV", "Fold Increase": 5.94},
      {"substance": "ALNEKLVNL", "Fold Increase": 1.52},
      {"substance": "KLFPDTPLAL", "Fold Increase": "Unique"},
      {"substance": "ILCPMIFNL", "Fold Increase": 2.51},
      {"substance": "LLDANLNIKI", "Fold Increase": 2.78},
      {"substance": "FLLEKGYEV", "Fold Increase": 1.81},
      {"substance": "ALLSAVTRL", "Fold Increase": "Unique"},
      {"substance": "SMLEDVQRA", "Fold Increase": 2.4},
      {"substance": "TLAEIAKVEL", "Fold Increase": 3.32},
      {"substance": "RLWPKIQGL", "Fold Increase": "Unique"},
      {"substance": "GLLDPSVFHV", "Fold Increase": 2.17},
      {"substance": "GLMTTVHAIT", "Fold Increase": 2.5},
      {"substance": "TLDEYTTRV", "Fold Increase": 3.74},
      {"substance": "SMPDFDLHL", "Fold Increase": 1.83},
      {"substance": "SLAKIYTEA", "Fold Increase": 5.38},
      {"substance": "KMWDPHNDPNA", "Fold Increase": "Unique"},
      {"substance": "TLIGLSIKV", "Fold Increase": 2.28},
      {"substance": "SLYEMVSRV", "Fold Increase": 1.87},
      {"substance": "SLLDIIEKV", "Fold Increase": 2.56},
      {"substance": "VLFDVTGQVRL", "Fold Increase": 2.48},
      {"substance": "TLLEDGTFKV", "Fold Increase": 1.67},
      {"substance": "GIWGFIKGV", "Fold Increase": 6.1},
      {"substance": "KLLDFGSLSNL", "Fold Increase": 3.57},
      {"substance": "GVAESIHLWEV", "Fold Increase": 2.89},
      {"substance": "RLYPWGVVEV", "Fold Increase": 2.79},
      {"substance": "VINDVRDIFL", "Fold Increase": 1.71},
      {"substance": "VLLSDSNLHDA", "Fold Increase": 10.95},
      {"substance": "VLEDPVHAV", "Fold Increase": 3.91},
      {"substance": "GLDKQIQEL", "Fold Increase": 4.09},
      {"substance": "ALLDKLYAL", "Fold Increase": 3.1},
      {"substance": "GIVEGLMTTV", "Fold Increase": 3.1},
      {"substance": "GLATDVQTV", "Fold Increase": 3.5},
      {"substance": "ILMEHIHKL", "Fold Increase": 5.46},
      {"substance": "SLFEGTWYL", "Fold Increase": 2.36},
      {"substance": "AMIELVERL", "Fold Increase": 1.81},
      {"substance": "KAPPAPLAA", "Fold Increase": "Unique"},
      {"substance": "FLASESLIKQIPR", "Fold Increase": "Unique"},
      {"substance": "FLGRINEI", "Fold Increase": 1.99},
      {"substance": "LLDVVHPAA", "Fold Increase": 3.43},
      {"substance": "SMMDVDHQI", "Fold Increase": 3.58},
      {"substance": "TLQEVFERATF", "Fold Increase": "Unique"},
      {"substance": "SLWSIISKV", "Fold Increase": 3.06},
      {"substance": "GLIENDALL", "Fold Increase": 1.71},
      {"substance": "ALMDEVVKA", "Fold Increase": 2.59},
      {"substance": "ALQELLSKGL", "Fold Increase": 2.8},
      {"substance": "LLLDVPTAAV", "Fold Increase": 1.95},
      {"substance": "FLAEEGFYKF", "Fold Increase": 2.98},
      {"substance": "YAYDGKDYIA", "Fold Increase": 1.6},
      {"substance": "GLIDGRLTI", "Fold Increase": 1.67},
      {"substance": "VMDSKIVQV", "Fold Increase": 22.84},
      {"substance": "GLMTTVHAITAT", "Fold Increase": "Unique"},
      {"substance": "ILDKKVEKV", "Fold Increase": "Unique"},
      {"substance": "RLTPKLMEV", "Fold Increase": 2.2},
      {"substance": "ALWEAKEGGLL", "Fold Increase": 1.54},
      {"substance": "GVYGDVHRV", "Fold Increase": 2.9},
      {"substance": "TIAQLHAV", "Fold Increase": "Unique"},
      {"substance": "TLIDLPGITKV", "Fold Increase": 6.48},
      {"substance": "GMYVFLHAV", "Fold Increase": 2.73},
      {"substance": "TLWDIQKDLK", "Fold Increase": 1.64},
      {"substance": "KIFEMGPVFTL", "Fold Increase": 6.45},
      {"substance": "RLIDLGVGL", "Fold Increase": 2.03},
      {"substance": "ILYDIPDIRL", "Fold Increase": 5.99},
      {"substance": "ALVEIGPRFVL", "Fold Increase": 10.83},
      {"substance": "KLQEFLQTL", "Fold Increase": 2.3},
      {"substance": "AIVDKVPSV", "Fold Increase": 1.88},
      {"substance": "YLDIKGLLDV", "Fold Increase": 2.44},
      {"substance": "GLAEDSPKM", "Fold Increase": 2},
      {"substance": "FMFDEKLVTV", "Fold Increase": 1.99},
      {"substance": "GLDIDGIYRV", "Fold Increase": 1.95},
      {"substance": "RLDDVSNDV", "Fold Increase": 2.55},
      {"substance": "ALLAGSEYLKL", "Fold Increase": 1.51},
      {"substance": "SMTLAIHEI", "Fold Increase": 2.11},
      {"substance": "GVIAEILRGV", "Fold Increase": 1.56},
      {"substance": "LLDVPTAAV", "Fold Increase": 5.18},
      {"substance": "KIADFGWSV", "Fold Increase": 2.26},
      {"substance": "LLDVVHPA", "Fold Increase": 33.09},
      {"substance": "TLAEVERLKGL", "Fold Increase": "Unique"},
      {"substance": "GLMTTVHAITATQ", "Fold Increase": "Unique"},
      {"substance": "GVLDNIQAV", "Fold Increase": "Unique"},
      {"substance": "ALSDGVHKI", "Fold Increase": "1.88 and 2.36"},
      {"substance": "VVQDGIVKA", "Fold Increase": "Unique"},
      {"substance": "KMYEEFLSKV", "Fold Increase": 1.8},
      {"substance": "ALVSSLHLL", "Fold Increase": 1.51},
      {"substance": "LLDVTPLSL", "Fold Increase": 9.68},
      {"substance": "FIQTQQLHAA", "Fold Increase": "Unique"},
      {"substance": "GIDSSSPEV", "Fold Increase": "Unique"},
      {"substance": "FAITAIKGV", "Fold Increase": 3.49},
      {"substance": "TLWPEVQKL", "Fold Increase": 2.97},
      {"substance": "IIMLEALERV", "Fold Increase": 13.68},
      {"substance": "KLFDDDETGKISF", "Fold Increase": "Unique"},
      {"substance": "KIAPNTPQL", "Fold Increase": 2.63},
      {"substance": "TLAKYLMEL", "Fold Increase": 6.81},
      {"substance": "ILSGVVTKM", "Fold Increase": 1.74},
      {"substance": "SLDQPTQTV", "Fold Increase": 9.84},
      {"substance": "KLDPTKTTL", "Fold Increase": 2.93},
      {"substance": "KLMELHGEGSS", "Fold Increase": "Unique"},
      {"substance": "YMEEIYHRI", "Fold Increase": 3.98},
      {"substance": "NDHFVKL", "Fold Increase": 7.75},
      {"substance": "LMTTVHAITAT", "Fold Increase": "Unique"},
      {"substance": "AIIGGTFTV", "Fold Increase": 4.17},
      {"substance": "QLLGSAHEV", "Fold Increase": 4.98},
      {"substance": "GMYIFLHTV", "Fold Increase": 2.32},
      {"substance": "IMLEALERV", "Fold Increase": 1.64},
      {"substance": "AVGKVIPEL", "Fold Increase": 12.46},
      {"substance": "KLLEGEESRISL", "Fold Increase": 2.1},
      {"substance": "GLMTTVHAITA", "Fold Increase": 3.2},
      {"substance": "ALDEKLLNI", "Fold Increase": 1.61},
      {"substance": "ALASHLIEA", "Fold Increase": 1.67},
      {"substance": "ALDKATVLL", "Fold Increase": 2.13},
      {"substance": "KLDEGNSL", "Fold Increase": 4.32},
      {"substance": "KMLEKLPEL", "Fold Increase": 2.14},
      {"substance": "GLWDKFSEL", "Fold Increase": 2.59},
      {"substance": "YAYDGKDYI", "Fold Increase": "Unique"},
      {"substance": "KIIDEDGLLNL", "Fold Increase": 1.56}
    ]},
    {"target": "B*0702 class I MHC molecules in cells infected with the PR8 strain of influenza A virus (Homo sapiens, UniProt P01889)", "type": "cell-based", "conditions": "not given", "values": [
      {"substance": "SPRSGLIRV", "Fold Increase": 1.53},
      {"substance": "SPAKIHVF", "Fold Increase": 2.8},
      {"substance": "RPKANSA", "Fold Increase": 1.8},
      {"substance": "HLNEKRRF", "Fold Increase": 2.02},
      {"substance": "APNRPPAAL", "Fold Increase": 1.5},
      {"substance": "NLPLSNLAI", "Fold Increase": 4.3},
      {"substance": "SPVPSRPL", "Fold Increase": 2.91},
      {"substance": "IPSIQSRGL", "Fold Increase": 1.6},
      {"substance": "RPTGGVGAV", "Fold Increase": 2.7},
      {"substance": "GPYPYTL", "Fold Increase": 2.01},
      {"substance": "LPSSGRSSL", "Fold Increase": 2},
      {"substance": "EPRPPHGEL", "Fold Increase": 2.7},
      {"substance": "PKFEVIEKPQA", "Fold Increase": 3.6},
      {"substance": "TPEQIFQN", "Fold Increase": 1.51},
      {"substance": "LPKPPGRGV", "Fold Increase": 1.9},
      {"substance": "APAGRKVGL", "Fold Increase": 1.5},
      {"substance": "APRGTGIVSA", "Fold Increase": 2.2},
      {"substance": "KPQDYKKR", "Fold Increase": 2.9},
      {"substance": "GPPGTGKTAL", "Fold Increase": 1.5},
      {"substance": "RPSGKGIVEF", "Fold Increase": 13.7},
      {"substance": "SPQEDKEVI", "Fold Increase": 4.19},
      {"substance": "APRPPPKM", "Fold Increase": 2.9},
      {"substance": "RPAGKGSITI", "Fold Increase": 1.8},
      {"substance": "NPASKVIAL", "Fold Increase": 1.64},
      {"substance": "VFLKPWI", "Fold Increase": 1.62},
      {"substance": "RPGLKNNL", "Fold Increase": 1.5}
    ]},
    {"target": "B*0702 class I MHC molecules in cells infected with the PR8 strain of influenza A virus (Homo sapiens, UniProt P01889)", "type": "cell-based", "conditions": "PR8B0702: presentation by sHLA B*0702, influenza PR8 infected vs uninfected cells", "values": [
      {"substance": "APEEHPVLL (listed as Homo sapiens)", "Fold Increase": 1.92},
      {"substance": "GPLDIEWLI (listed as Homo sapiens)", "Fold Increase": 2.2}
    ]}
  ]
}
